# According to IntAct's records for PubMed 21216997:
# Tests used:
# ftsz_ecoli ftsZ [1] = molecular target: ftsz_ecoli ftsZ (UniProt P0A9A6)
# ftsz_ecoli ftsZ [2] = molecular target: ftsz_ecoli ftsZ (UniProt P0A9A6); remark: listed apart in the source
# Sequence of ftsz_ecoli ftsZ (P0A9A6 whole entry): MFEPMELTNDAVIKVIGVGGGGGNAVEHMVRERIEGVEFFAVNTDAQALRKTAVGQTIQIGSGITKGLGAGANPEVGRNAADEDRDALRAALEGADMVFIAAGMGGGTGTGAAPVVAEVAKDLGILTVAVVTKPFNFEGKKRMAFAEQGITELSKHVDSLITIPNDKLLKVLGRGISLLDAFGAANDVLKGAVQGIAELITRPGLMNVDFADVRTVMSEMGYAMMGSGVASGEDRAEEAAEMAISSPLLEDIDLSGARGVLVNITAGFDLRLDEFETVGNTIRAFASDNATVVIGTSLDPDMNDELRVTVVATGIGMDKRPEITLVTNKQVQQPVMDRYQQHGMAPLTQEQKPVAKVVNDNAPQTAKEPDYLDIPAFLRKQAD
substance,measurement,setting,value
"Cell division protein ZapC (Escherichia coli (strain K12)), P75862 L22P",effect of a mutation on the interaction,ftsz_ecoli ftsZ [1],decreasing interaction strength
same,effect of a mutation on the interaction,ftsz_ecoli ftsZ [2],disrupting interaction
